Laboratory results published in patent publication US20040138106A1.

Molecular target: Gly4→Compound A mutant myoglobin (myoglobin containing β-O-GlcNAc-L-serine at position 4, C-terminal His6 tag) (UniProt P02185)
Test: ELISA-like assay: 200 ng myoglobin immobilized, biotinylated BSII, streptavidin-alkaline phosphatase, p-nitrophenyl phosphate, A405

Gly4→Compound A mutant myoglobin (myoglobin containing β-O-GlcNAc-L-serine at position 4, C-terminal His6 tag), sequence (P02185 other isoform, or with tags, fused parts or gaps mutant): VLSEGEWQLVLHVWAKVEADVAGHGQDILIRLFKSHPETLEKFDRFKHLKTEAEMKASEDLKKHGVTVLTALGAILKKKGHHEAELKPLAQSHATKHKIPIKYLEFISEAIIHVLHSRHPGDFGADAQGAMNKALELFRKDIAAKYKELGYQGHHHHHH

fold signal (A405) against wild-type myoglobin: > 200 fold
Substance: GlcNAc-specific lectin, Bandeiraea simplicifolia II (BSII), biotinylated
